Laboratory results reported in article PMC9352680, “A comprehensive thermodynamic model for RNA binding by the Saccharomyces cerevisiae Pumilio protein PUF4”.

T1: PUF4 RNA-binding domain (Saccharomyces cerevisiae, UniProt P25339 537-888)
T1 sequence: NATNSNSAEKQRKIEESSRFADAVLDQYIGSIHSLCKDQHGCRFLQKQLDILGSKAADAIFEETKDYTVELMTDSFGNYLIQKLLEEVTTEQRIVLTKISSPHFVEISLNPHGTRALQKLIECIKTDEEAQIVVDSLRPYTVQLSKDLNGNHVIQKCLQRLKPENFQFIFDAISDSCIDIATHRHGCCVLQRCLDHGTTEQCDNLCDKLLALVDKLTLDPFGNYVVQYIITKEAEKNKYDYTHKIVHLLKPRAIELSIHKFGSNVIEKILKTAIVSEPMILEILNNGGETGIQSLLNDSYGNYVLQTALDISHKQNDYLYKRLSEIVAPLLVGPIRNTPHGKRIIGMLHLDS


biological target: T1, PUF4 RNA-binding domain; experiment: Mg; RNA-MaP; 20 mM Na-HEPES pH 7.4, 30 mM KOAc, 0.75 mM MgCl2, 0.1% Tween-20, 5% glycerol, 0.1 mg/mL BSA, 2 mM DTT; 25 C; 0.0125-409.6 nM protein; conditions: tags: N-His6-TEV cleaved; C-SNAP kept, Cy3B-labelled; label: tethered on chip by stalled RNA polymerase

| Binder | Kd [nM] |
| --- | --- |
| ACAAACUGGAUUAUGAACAAAC (ssRNA) [Ib_S3_P5E.1_K5.1_C5.1_H5.1_[T3G]_A5.1_F5.1_[T9G]_T5.1] | > 2300 |
| ACAAACUCCAUUAUUAACAAAC (ssRNA) [Ib_S3_P5E.1_K5.1_C5.1_H5.1_[G2C]_[T3C]_A5.1_F5.1_T5.1] | > 2300 |
| UCUCUUUAUAUAUAUCUCUU (ssRNA) [Ia_S1_P3E.1_K3.1_C3.1_H3.1_[G2A]_A3.1_F3.1_T3.1] | 637 |
| ACAAACCCUAUUAUUAACAAAC (ssRNA) [Ib_S3_P5E.1_K5.1_C5.1_H5.1_[T1C]_[G2C]_A5.1_F5.1_T5.1] | > 2300 |
| UCUCUUUGUAUACAUCUCUU (ssRNA) [Ia_S1_P3E.1_K3.1_C3.1_H3.1_A3.1_F3.1_[T7C]_T3.1] | 44.6 |
| ACAAACUGCAUUUUAACAAAC (ssRNA) [Ib_S3_P4E.1_K4.1_C4.1_H4.1_[T3C]_A4.1_[A6T]_F4.1_T4.1] | 1910 |
| ACAAACUUUAAUAUUAACAAAC (ssRNA) [Ib_S3_P5E.1_K5.1_C5.1_H5.1_[G2T]_A5.1_[T5A]_F5.1_T5.1] | > 2300 |
| ACAAACUCCAUAUUAACAAAC (ssRNA) [Ib_S3_P4E.1_K4.1_C4.1_H4.1_[G2C]_[T3C]_A4.1_F4.1_T4.1] | > 2300 |
| ACAAACUGCAUAAUAACAAAC (ssRNA) [Ib_S3_P4E.1_K4.1_C4.1_H4.1_[T3C]_A4.1_[T7A]_F4.1_T4.1] | 1450 |
| ACAAACCGUAUUUUAACAAAC (ssRNA) [Ib_S3_P4E.1_K4.1_C4.1_H4.1_[T1C]_A4.1_[A6T]_F4.1_T4.1] | 1400 |
| ACAAACAGUAUCAUUAACAAAC (ssRNA) [Ib_S3_P5E.1_K5.1_C5.1_H5.1_[T1A]_A5.1_[T6C]_F5.1_T5.1] | > 2300 |
| ACAAACAGGAUUAUUAACAAAC (ssRNA) [Ib_S3_P5E.1_K5.1_C5.1_H5.1_[T1A]_[T3G]_A5.1_F5.1_T5.1] | > 2300 |
| ACAAACUCUAUAAUUAACAAAC (ssRNA) [Ib_S3_P5E.1_K5.1_C5.1_H5.1_[G2C]_A5.1_[T6A]_F5.1_T5.1] | > 2300 |
| ACAAACGGUAUUUUUAACAAAC (ssRNA) [Ib_S3_P5E.1_K5.1_C5.1_H5.1_[T1G]_A5.1_[A7T]_F5.1_T5.1] | 1600 |
| ACAAACCGUAGAUUAACAAAC (ssRNA) [Ib_S3_P4E.1_K4.1_C4.1_H4.1_[T1C]_A4.1_[T5G]_F4.1_T4.1] | 455 |
| ACAAACUAUAGUAUUAACAAAC (ssRNA) [Ib_S3_P5E.1_K5.1_C5.1_H5.1_[G2A]_A5.1_[T5G]_F5.1_T5.1] | > 2300 |
| ACAAACUGUCUUACUAACAAAC (ssRNA) [Ib_S3_P5E.1_K5.1_C5.1_H5.1_[A4C]_A5.1_F5.1_[T8C]_T5.1] | 1030 |
| ACAAACUAAAUUAUUAACAAAC (ssRNA) [Ib_S3_P5E.1_K5.1_C5.1_H5.1_[G2A]_[T3A]_A5.1_F5.1_T5.1] | > 2300 |
| ACAAACUGGAUUAAUAACAAAC (ssRNA) [Ib_S3_P5E.1_K5.1_C5.1_H5.1_[T3G]_A5.1_F5.1_[T8A]_T5.1] | > 2300 |
| ACAAACAUUAUAUUAACAAAC (ssRNA) [Ib_S3_P4E.1_K4.1_C4.1_H4.1_[T1A]_[G2T]_A4.1_F4.1_T4.1] | > 2300 |

| Binder | Kd [nM] |
| --- | --- |
| ACAAACCGUAUUAUUCACAAAC (ssRNA) [Ib_S3_P5E.1_K5.1_C5.1_H5.1_[T1C]_A5.1_F5.1_[A10C]_T5.1] | > 2300 |
| ACAAACUGGAUUACUAACAAAC (ssRNA) [Ib_S3_P5E.1_K5.1_C5.1_H5.1_[T3G]_A5.1_F5.1_[T8C]_T5.1] | > 2300 |
| ACAAACUGCAUUACUAACAAAC (ssRNA) [Ib_S3_P5E.1_K5.1_C5.1_H5.1_[T3C]_A5.1_F5.1_[T8C]_T5.1] | > 2300 |
| ACAAACUGUCCUAUUAACAAAC (ssRNA) [Ib_S3_P5E.1_K5.1_C5.1_H5.1_[A4C]_A5.1_[T5C]_F5.1_T5.1] | 545 |
| ACAAACAGUAGAUUAACAAAC (ssRNA) [Ib_S3_P4E.1_K4.1_C4.1_H4.1_[T1A]_A4.1_[T5G]_F4.1_T4.1] | 828 |
| ACAAACUGAAUAAUAACAAAC (ssRNA) [Ib_S3_P4E.1_K4.1_C4.1_H4.1_[T3A]_A4.1_[T7A]_F4.1_T4.1] | > 2300 |
| ACAAACUUUAUCAUUAACAAAC (ssRNA) [Ib_S3_P5E.1_K5.1_C5.1_H5.1_[G2T]_A5.1_[T6C]_F5.1_T5.1] | > 2300 |
| Ib_S4_P3E.1_K3.1_C3.1_H3.1_A3.1_F3.1_[T7G]_[A8C]_T3.1 (ssRNA) RNA: UUUGACAACUGAUCGUUCUUUCUUGUAUAGCUUCUUUCUCGAUCAGUUGUCUUU | 85.3 |
| Ib_S4_P3E.1_K3.1_C3.1_H3.1_A3.1_F3.1_[T7C]_[A8G]_T3.1 (ssRNA) RNA: UUUGACAACUGAUCGUUCUUUCUUGUAUACGUUCUUUCUCGAUCAGUUGUCUUU | 60.4 |
| Ib_S4_P3E.1_K3.1_C3.1_H3.1_A3.1_F3.1_[T7C]_[A8C]_T3.1 (ssRNA) RNA: UUUGACAACUGAUCGUUCUUUCUUGUAUACCUUCUUUCUCGAUCAGUUGUCUUU | 28.9 |
| ACAAACUGAACUAUUAACAAAC (ssRNA) [Ib_S3_P5E.1_K5.1_C5.1_H5.1_[T3A]_A5.1_[T5C]_F5.1_T5.1] | > 2300 |
| ACAAACGGUAUCAUUAACAAAC (ssRNA) [Ib_S3_P5E.1_K5.1_C5.1_H5.1_[T1G]_A5.1_[T6C]_F5.1_T5.1] | 1450 |
| ACAAACUUUAUUAUUUACAAAC (ssRNA) [Ib_S3_P5E.1_K5.1_C5.1_H5.1_[G2T]_A5.1_F5.1_[A10T]_T5.1] | > 2300 |
| ACAAACUAUAUUAUUUACAAAC (ssRNA) [Ib_S3_P5E.1_K5.1_C5.1_H5.1_[G2A]_A5.1_F5.1_[A10T]_T5.1] | 994 |
| ACAAACUCUAUAGUAACAAAC (ssRNA) [Ib_S3_P4E.1_K4.1_C4.1_H4.1_[G2C]_A4.1_[T7G]_F4.1_T4.1] | > 2300 |
| ACAAACCGUAUAAUUAACAAAC (ssRNA) [Ib_S3_P5E.1_K5.1_C5.1_H5.1_[T1C]_A5.1_[T6A]_F5.1_T5.1] | 1180 |
| ACAAACGGUCUUAUUAACAAAC (ssRNA) [Ib_S3_P5E.1_K5.1_C5.1_H5.1_[T1G]_[A4C]_A5.1_F5.1_T5.1] | > 2300 |
| ACAAACCGUAUUUUUAACAAAC (ssRNA) [Ib_S3_P5E.1_K5.1_C5.1_H5.1_[T1C]_A5.1_[A7T]_F5.1_T5.1] | > 2300 |
| ACAAACUGGACUAUUAACAAAC (ssRNA) [Ib_S3_P5E.1_K5.1_C5.1_H5.1_[T3G]_A5.1_[T5C]_F5.1_T5.1] | > 2300 |
| ACAAACUGACUUAUUAACAAAC (ssRNA) [Ib_S3_P5E.1_K5.1_C5.1_H5.1_[T3A]_[A4C]_A5.1_F5.1_T5.1] | > 2300 |

| Binder | Kd [nM] |
| --- | --- |
| ACAAACUAUUUUAUUAACAAAC (ssRNA) [Ib_S3_P5E.1_K5.1_C5.1_H5.1_[G2A]_[A4T]_A5.1_F5.1_T5.1] | > 2300 |
| ACAAACUGUCUUAUUUACAAAC (ssRNA) [Ib_S3_P5E.1_K5.1_C5.1_H5.1_[A4C]_A5.1_F5.1_[A10T]_T5.1] | 641 |
| ACAAACUGAAUACUAACAAAC (ssRNA) [Ib_S3_P4E.1_K4.1_C4.1_H4.1_[T3A]_A4.1_[T7C]_F4.1_T4.1] | 1130 |
| ACAAACUAUAUUAAUAACAAAC (ssRNA) [Ib_S3_P5E.1_K5.1_C5.1_H5.1_[G2A]_A5.1_F5.1_[T8A]_T5.1] | 1580 |
| ACAAACUGAAUUAUAAACAAAC (ssRNA) [Ib_S3_P5E.1_K5.1_C5.1_H5.1_[T3A]_A5.1_F5.1_[T9A]_T5.1] | > 2300 |
| ACAAACAGUAUCUUAACAAAC (ssRNA) [Ib_S3_P4E.1_K4.1_C4.1_H4.1_[T1A]_A4.1_[A6C]_F4.1_T4.1] | > 2300 |
| ACAAACUAUUUAUUAACAAAC (ssRNA) [Ib_S3_P4E.1_K4.1_C4.1_H4.1_[G2A]_[A4T]_A4.1_F4.1_T4.1] | > 2300 |
| Ia_S2_P5E.1_K5.1_C5.1_H5.1_A5.1_[T5A]_F5.1_T5.1 (ssRNA) RNA: UUUGAUUAAUAUGAUAUCGUUCUUUCUUGUAAUAUUAUUCUUUCUCGAUAUCAUAUUAAUCUUU | 4.27 |
| Ia_S2_P5E.1_K5.1_C5.1_H5.1_A5.1_[A7G]_F5.1_T5.1 (ssRNA) RNA: UUUGAUUAAUAUGAUAUCGUUCUUUCUUGUAUUGUUAUUCUUUCUCGAUAUCAUAUUAAUCUUU | 11.6 |
| Ia_S2_P5E.1_K5.1_C5.1_H5.1_A5.1_[T6A]_F5.1_T5.1 (ssRNA) RNA: UUUGAUUAAUAUGAUAUCGUUCUUUCUUGUAUAAUUAUUCUUUCUCGAUAUCAUAUUAAUCUUU | 2.33 |
| Ia_S2_P5E.1_K5.1_C5.1_H5.1_A5.1_[T6C]_F5.1_T5.1 (ssRNA) RNA: UUUGAUUAAUAUGAUAUCGUUCUUUCUUGUAUCAUUAUUCUUUCUCGAUAUCAUAUUAAUCUUU | 1.73 |
| Ia_S2_P5E.1_K5.1_C5.1_H5.1_A5.1_[A7C]_F5.1_T5.1 (ssRNA) RNA: UUUGAUUAAUAUGAUAUCGUUCUUUCUUGUAUUCUUAUUCUUUCUCGAUAUCAUAUUAAUCUUU | 3.06 |
| Ia_S2_P5E.1_K5.1_C5.1_H5.1_A5.1_[A7T]_F5.1_T5.1 (ssRNA) RNA: UUUGAUUAAUAUGAUAUCGUUCUUUCUUGUAUUUUUAUUCUUUCUCGAUAUCAUAUUAAUCUUU | 2.11 |
| ACAAACCUUAUUAUUAACAAAC (ssRNA) [Ib_S3_P5E.1_K5.1_C5.1_H5.1_[T1C]_[G2T]_A5.1_F5.1_T5.1] | > 2300 |
| ACAAACUGUCUUCUUAACAAAC (ssRNA) [Ib_S3_P5E.1_K5.1_C5.1_H5.1_[A4C]_A5.1_[A7C]_F5.1_T5.1] | 2190 |
| ACAAACAGUAUUUUUAACAAAC (ssRNA) [Ib_S3_P5E.1_K5.1_C5.1_H5.1_[T1A]_A5.1_[A7T]_F5.1_T5.1] | > 2300 |
| ACAAACAGUAUAAUUAACAAAC (ssRNA) [Ib_S3_P5E.1_K5.1_C5.1_H5.1_[T1A]_A5.1_[T6A]_F5.1_T5.1] | 1740 |
| ACAAACUAUAUAAUUAACAAAC (ssRNA) [Ib_S3_P5E.1_K5.1_C5.1_H5.1_[G2A]_A5.1_[T6A]_F5.1_T5.1] | 1050 |
| ACAAACAGUAAAUUAACAAAC (ssRNA) [Ib_S3_P4E.1_K4.1_C4.1_H4.1_[T1A]_A4.1_[T5A]_F4.1_T4.1] | 596 |
| ACAAACAGUCUUAUUAACAAAC (ssRNA) [Ib_S3_P5E.1_K5.1_C5.1_H5.1_[T1A]_[A4C]_A5.1_F5.1_T5.1] | > 2300 |
